Assay results reported in patent US20020031799A1.

Legend:
[1] = biological target: FVIIIa (activated factor VIII) (UniProt P00451)
[2] = biological target: FVIIIa (activated factor VIII) (UniProt P00451); assay: apparent Kd; 0.1 nM FVIIIa titrated with 0-5 nM FIXa, 100 µM PSPC vesicles, 5 mM CaCl2; complex read by the initial rate of FXa generation, quadratic fit
[3] = biological target: FVIIIa (activated factor VIII) (UniProt P00451); assay: apparent Kd from FXa generation, as FIG. 1, in the presence of 100 nM hirudin
[4] = biological target: FVIIIa (activated factor VIII) (UniProt P00451); assay: apparent Kd from FXa generation, as FIG. 1, in the absence of hirudin

Chain of UniProt P00451 (P00451 whole entry, looked up): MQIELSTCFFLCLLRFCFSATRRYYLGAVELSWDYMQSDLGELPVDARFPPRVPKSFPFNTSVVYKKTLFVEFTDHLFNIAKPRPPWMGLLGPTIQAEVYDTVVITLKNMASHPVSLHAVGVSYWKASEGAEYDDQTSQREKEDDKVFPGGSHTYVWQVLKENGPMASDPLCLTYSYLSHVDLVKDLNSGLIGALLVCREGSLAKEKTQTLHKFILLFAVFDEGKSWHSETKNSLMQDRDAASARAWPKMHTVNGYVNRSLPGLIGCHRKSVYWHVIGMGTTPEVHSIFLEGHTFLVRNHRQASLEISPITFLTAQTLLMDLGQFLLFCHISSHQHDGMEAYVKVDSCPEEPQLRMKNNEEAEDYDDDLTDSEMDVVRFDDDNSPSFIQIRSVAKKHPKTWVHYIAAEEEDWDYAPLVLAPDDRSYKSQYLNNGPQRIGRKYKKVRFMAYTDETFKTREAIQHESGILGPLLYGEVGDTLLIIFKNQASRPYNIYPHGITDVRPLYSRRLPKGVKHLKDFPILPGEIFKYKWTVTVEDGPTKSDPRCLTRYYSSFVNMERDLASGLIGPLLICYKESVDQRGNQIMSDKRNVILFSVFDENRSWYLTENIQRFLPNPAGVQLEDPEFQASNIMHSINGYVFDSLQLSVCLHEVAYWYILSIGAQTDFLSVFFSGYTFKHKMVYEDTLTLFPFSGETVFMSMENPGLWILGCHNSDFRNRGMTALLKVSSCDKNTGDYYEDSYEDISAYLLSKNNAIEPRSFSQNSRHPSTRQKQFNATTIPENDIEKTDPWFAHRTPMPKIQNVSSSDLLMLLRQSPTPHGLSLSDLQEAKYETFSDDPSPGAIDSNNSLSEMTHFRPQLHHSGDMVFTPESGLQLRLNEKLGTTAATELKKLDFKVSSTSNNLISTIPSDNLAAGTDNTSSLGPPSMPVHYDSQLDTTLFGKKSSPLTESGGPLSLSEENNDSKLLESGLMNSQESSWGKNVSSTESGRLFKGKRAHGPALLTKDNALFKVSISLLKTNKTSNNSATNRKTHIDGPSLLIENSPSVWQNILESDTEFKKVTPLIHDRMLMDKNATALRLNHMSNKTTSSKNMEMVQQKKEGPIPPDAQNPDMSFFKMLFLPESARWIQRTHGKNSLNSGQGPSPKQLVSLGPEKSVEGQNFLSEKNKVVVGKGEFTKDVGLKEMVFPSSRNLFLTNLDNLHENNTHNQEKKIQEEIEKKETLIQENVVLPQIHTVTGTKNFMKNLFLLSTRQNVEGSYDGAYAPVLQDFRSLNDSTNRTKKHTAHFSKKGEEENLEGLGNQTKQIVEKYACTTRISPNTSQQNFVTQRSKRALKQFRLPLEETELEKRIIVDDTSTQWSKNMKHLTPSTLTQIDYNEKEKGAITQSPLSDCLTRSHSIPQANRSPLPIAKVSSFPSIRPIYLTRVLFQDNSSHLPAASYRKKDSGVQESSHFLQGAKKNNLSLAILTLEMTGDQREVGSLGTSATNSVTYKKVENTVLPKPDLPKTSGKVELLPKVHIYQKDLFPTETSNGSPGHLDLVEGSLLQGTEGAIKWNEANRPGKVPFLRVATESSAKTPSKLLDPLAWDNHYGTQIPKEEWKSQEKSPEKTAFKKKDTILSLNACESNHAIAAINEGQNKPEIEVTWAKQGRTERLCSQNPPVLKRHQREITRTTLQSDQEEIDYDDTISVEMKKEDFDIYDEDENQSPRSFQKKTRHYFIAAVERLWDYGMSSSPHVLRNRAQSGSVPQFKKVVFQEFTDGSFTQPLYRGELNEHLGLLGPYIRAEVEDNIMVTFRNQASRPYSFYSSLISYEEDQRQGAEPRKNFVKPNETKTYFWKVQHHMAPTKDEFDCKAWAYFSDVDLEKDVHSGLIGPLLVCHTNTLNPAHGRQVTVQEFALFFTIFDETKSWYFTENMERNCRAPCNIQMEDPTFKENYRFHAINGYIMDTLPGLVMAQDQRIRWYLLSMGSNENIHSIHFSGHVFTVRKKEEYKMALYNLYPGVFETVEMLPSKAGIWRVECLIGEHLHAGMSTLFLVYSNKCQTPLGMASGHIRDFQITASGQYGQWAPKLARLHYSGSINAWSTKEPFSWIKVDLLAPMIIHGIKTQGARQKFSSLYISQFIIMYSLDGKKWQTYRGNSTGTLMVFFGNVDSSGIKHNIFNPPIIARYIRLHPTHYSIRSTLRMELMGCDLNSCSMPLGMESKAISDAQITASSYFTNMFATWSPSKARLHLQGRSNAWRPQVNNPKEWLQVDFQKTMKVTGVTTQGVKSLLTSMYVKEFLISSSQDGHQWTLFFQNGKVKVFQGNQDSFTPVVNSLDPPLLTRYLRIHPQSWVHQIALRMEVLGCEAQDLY

Row | Substance | Bmax, in the absence of hirudin [1] [nM FXa/min] | Bmax, in the presence of 100 nM hirudin [1] [nM FXa/min] | maximum rate of FX cleavage (Bmax of FIG. 1) [1] | other results
1 | R338A-FIXa (activated Factor IX with alanine at position 338) | 3.39±0.12 | 3.38±0.19 | 3.56±0.15 nM FXa/min | –
2 | plasma FIXa (activated purified normal human plasma Factor IX) | – | – | 1.30 ± 0.10 nM/min | –
3 | plasma FIXa (activated purified normal human plasma Factor IX) (from UniProt P00740 47-191; P00740 227-461) (enzyme) | – | – | – | Kd [2]: 1.01 nM
4 | recombinant wt-FIXa (activated recombinant wild type Factor IX) | 1.27±0.12 | 1.35±0.15 | – | –
5 | recombinant wt-FIXa (activated recombinant wild type Factor IX) (from UniProt P00740 47-191; P00740 227-461) (enzyme) | – | – | – | Kd [3]: 0.85 nM; Kd [4]: 0.38 nM
